B1: Pistol ribozyme (parent)
chain: GGGUCGUUGUUCCAUAAUCGCGUGGAUAUGGCACGCAAGUUUCUACCGGGCACCGUAAAUGUCCGACUGGAGCCGUUCGGGCGGCUAUAAACAGACCUCAGGCCCGAAGCGUGGCGGCACCUGCCGCCGGUGGUAAAAAAGAUCGGAAGAGCACACGUCU

Variants of: B1
Experiment: aptazyme ON/OFF ratio, guanine; higher = stronger switching; co-transcriptional cleavage with and without guanine

Variant | aptazyme ON/OFF ratio
U7C U8C G9C U10A U11A C12G C13A | 1.11
U7C U8C G9C U10A U11A C12G C13U | 1.09
U7C U8C G9C U10A U11A C12G C13G | 1.19
U7C U8C G9A U10A C12U C13A | 1.14
U7C U8C G9A U10A C12U C13G | 1.19
U7C U8C G9A U10A C12U C13U | 1.13
U7C U8C G9C U10A U11G C12G | 1.14
U7C U8C G9C U10A U11G C12A | 1.16
U7C U8C G9A U10C U11A C12U | 1.22
U7C U8C G9A U10C U11A C12G | 1.23
U7C U8C G9A U10C U11A C12A | 1.51
U7C U8C G9A U10C U11C C12U | 1.41
U7C U8C G9A U10C U11C C12G | 1.19
U7C U8C G9A U10C U11C C12A | 1.25
U7C U8C G9C U10A U11C C12U | 1.17
U7C U8C G9C U10A U11C C12G | 1.21
U7C U8C G9C U10A U11C C12A | 1.21
U7C U8C G9A U10C U11G C12A C13G | 1.16
U7C U8C G9A U10C U11G C12A C13A | 1.28
U7C U8C G9A U10C U11G C12A C13U | 1.52
U7C U8C G9A C13U | 1.83
U7C U8C G9A C13G | 1.11
U7C U8C G9A C13A | 1.24
U7C U8C G9A U10G C13A | 1.27

Variant | aptazyme ON/OFF ratio
U7C U8C G9A U10G C13G | 1.12
U7C U8C G9A U10G C13U | 1.37
U7C U8C G9A U10G C12G | 1.22
U7C U8C G9A U10G C12A | 1.21
U7C U8C G9A U10G C12U | 1.46
U7C U8C G9C U10A U11C | 1.39
U7C U8C G9C U10A U11G | 1.32
U7C U8C G9C U10A U11A | 1.44
U7C U8C G9A U10C C12U | 2.28
U7C U8C G9A U10C C12A | 1.12
U7C U8C G9A U10C C12G | 1.33
U7C U8C G9A U10G C12G C13A | 1.2
U7C U8C G9A U10G C12G C13G | 1.16
U7C U8C G9A U10G C12G C13U | 1.16
U7C U8C G9A U11A C12A | 1.21
U7C U8C G9A U11A C12U | 1.06
U7C U8C G9A U11A C12G | 1.21
U7C U8C G9A U10A U11C C12A | 1.37
U7C U8C G9A U10A U11C C12G | 1.23
U7C U8C G9A U10A U11C C12U | 1.2
U7C U8C G9A U10A U11G C12U C13A | 1.13
U7C U8C G9A U10A U11G C12U C13U | 1.16
U7C U8C G9A U10A U11G C12U C13G | 1.21
U7C U8C G9C U10A C13G | 1.15

Variant | aptazyme ON/OFF ratio
U7C U8C G9C U10A C13U | 1.35
U7C U8C G9C U10A C13A | 1.16
U7C U8C G9A U10A U11G C12G C13A | 1.13
U7C U8C G9A U10A U11G C12G C13U | 1.14
U7C U8C G9A U10A U11G C12G C13G | 1.15
U7C U8C G9C U10A C12A C13U | 1.21
U7C U8C G9C U10A C12A C13A | 1.09
U7C U8C G9C U10A C12A C13G | 1.14
U7C U8C G9C U10A C12G | 1.16
U7C U8C G9C U10A C12U | 1.26
U7C U8C G9C U10A C12A | 1.11
U7C U8C C12U C13G | 1.2
U7C U8C C12U C13U | 1.29
U7C U8C G9A U10A U11G C12A C13A | 1.09
U7C U8C G9A U10A U11G C12A C13G | 1.09
U7C U8C G9A U10A U11G C12A C13U | 1.16
U7C U8C G9A U10C U11C C12G C13U | 1.29
U7C U8C G9A U10C U11C C12G C13A | 1.5
U7C U8C G9A U10C U11C C12G C13G | 1.24
U7C U8C G9A C12A C13G | 1.05
U7C U8C G9A C12A C13U | 1.42
U7C U8C G9A C12A C13A | 1.24
U7C U8C G9A U10G U11C C12U | 1.43
U7C U8C G9A U10G U11C C12G | 1.12

Variant | aptazyme ON/OFF ratio
U7C U8C G9A U10G U11C C12A | 1.54
U7C U8C G9A U10G U11G C12U C13U | 1.14
U7C U8C G9A U10G U11G C12U C13G | 1.11
U7C U8C G9A U10G U11G C12U C13A | 1.1
U7C U8C G9A U11G C12G C13U | 1.11
U7C U8C G9A U11G C12G C13G | 1.11
U7C U8C G9A U11G C12G C13A | 1.23
U7C U8C G9A U10C | 1.45
U7C U8C G9A U10A | 1.54
U7C U8C G9A U10G | 1.56
U7C U8C G9A U11G C12U C13U | 1.35
U7C U8C G9A U11G C12U C13A | 1.22
U7C U8C G9A U11G C12U C13G | 1.15
U7C U8C G9C U10A U11G C12G C13U | 1.1
U7C U8C G9C U10A U11G C12G C13G | 1.12
U7C U8C G9C U10A U11G C12G C13A | 1.15
U7C U8C G9A U10A U11A C12G C13G | 1.12
U7C U8C G9A U10A U11A C12G C13A | 1.21
U7C U8C G9A U10A U11A C12G C13U | 1.15
U7C U8C G9A U11A C12A C13A | 1.43
U7C U8C G9A U11A C12A C13G | 1.18
U7C U8C G9A U11A C12A C13U | 1.38
U7C U8C G9A U10C C12A C13G | 1.2
U7C U8C G9A U10C C12A C13U | 1.21

Variant | aptazyme ON/OFF ratio
U7C U8C G9A U10C C12A C13A | 1.52
U7C U8C G9A U10G U11C C13A | 1.24
U7C U8C G9A U10G U11C C13U | 1.17
U7C U8C G9A U10G U11C C13G | 1.01
U7C U8C G9A U10G C12A C13G | 1.09
U7C U8C G9A U10G C12A C13A | 1.13
U7C U8C G9A U10G C12A C13U | 1.06
U7C U8C G9A U10G U11C C12A C13G | 1.07
U7C U8C G9A U10G U11C C12A C13A | 1.2
U7C U8C G9A U10G U11C C12A C13U | 1.17
U7C U8C G9A U10G U11G C12U | 1.25
U7C U8C G9A U10G U11G C12A | 1.23
U7C U8C G9A U10G U11G C12G | 1.16
U7C U8C G9A U10C U11G C13A | 1.11
U7C U8C G9A U10C U11G C13U | 1.32
U7C U8C G9A U10C U11G C13G | 1.15
U7C U8C G9A U10C U11A C12U C13U | 1.3
U7C U8C G9A U10C U11A C12U C13A | 1.21
U7C U8C G9A U10C U11A C12U C13G | 1.27
U7C U8C G9A U10A U11C C12A C13U | 1.31
U7C U8C G9A U10A U11C C12A C13G | 1.18
U7C U8C G9A U10A U11C C12A C13A | 1.17
U7C U8C G9A U10G U11C C12U C13G | 1.18
U7C U8C G9A U10G U11C C12U C13A | 1.29

Variant | aptazyme ON/OFF ratio
U7C U8C G9A U10G U11C C12U C13U | 1.26
U7C U8C G9A U10A U11C C12U C13U | 1.13
U7C U8C G9A U10A U11C C12U C13A | 1.15
U7C U8C G9A U10A U11C C12U C13G | 1.2
U7C U8C G9A U10C U11A C13G | 1.04
U7C U8C G9A U10C U11A C13A | 1.41
U7C U8C G9A U10C U11A C13U | 1.45
U7C U8C G9C C12U C13A | 1.16
U7C U8C G9C C12U C13G | 1.11
U7C U8C G9C C12U C13U | 1.14
U7C U8C G9A U11C C12U C13U | 1.18
U7C U8C G9A U11C C12U C13A | 1.19
U7C U8C G9A U11C C12U C13G | 1.08
U7C U8C G9C U10A U11C C13G | 1.1
U7C U8C G9C U10A U11C C13U | 1.1
U7C U8C G9C U10A U11C C13A | 1.08
U7C U8C G9A C12G C13G | 1.28
U7C U8C G9A C12G C13A | 1.25
U7C U8C G9A C12G C13U | 1.24
U7C U8C G9C U10A U11C C12A C13G | 1.09
U7C U8C G9C U10A U11C C12A C13U | 1.13
U7C U8C G9C U10A U11C C12A C13A | 1.09
U7C U8C G9C C13G | 1.09
U7C U8C G9C C13U | 1.05

Variant | aptazyme ON/OFF ratio
U7C U8C G9C C13A | 1.09
U7C U8C G9A U11A C13U | 1.32
U7C U8C G9A U11A C13G | 1.13
U7C U8C G9A U11A C13A | 1.26
U7C U8C G9A U10C C12U C13G | 1.26
U7C U8C G9A U10C C12U C13U | 1.32
U7C U8C G9A U10C C12U C13A | 1.22
U7C U8C G9A U10C U11C C12A C13A | 1.39
U7C U8C G9A U10C U11C C12A C13G | 1.17
U7C U8C G9A U10C U11C C12A C13U | 1.31
U7C U8C G9A U10G U11G C13U | 1.29
U7C U8C G9A U10G U11G C13G | 1.23
U7C U8C G9A U10G U11G C13A | 1.18
U7C U8C G9C U10A U11A C12A C13A | 1.09
U7C U8C G9C U10A U11A C12A C13G | 1.03
U7C U8C G9C U10A U11A C12A C13U | 1.13
U7C U8C G9A U10G U11A C13A | 1.1
U7C U8C G9A U10G U11A C13U | 1.07
U7C U8C G9A U10G U11A C13G | 1.25
U7C U8C G9A U10C U11A C12A C13U | 1.18
U7C U8C G9A U10C U11A C12A C13G | 1.4
U7C U8C G9A U10C U11A C12A C13A | 1.18
U7C U8C G9A U11G C13G | 1.28
